Target: the molecule itself
Assay: NMR relaxation (T1, T2, heteronuclear NOE); 15N relaxation at 600 MHz and 30°C; correlation time 14.8 ns

B1: recombinant mouse Nerve Growth Factor (mNGF) (natural protein, UniProt P01139 122-241, looked up)
chain: SSTHPVFHMGEFSVCDSVSVWVGDKTTATDIKGKEVTVLAEVNINNSVFRQYFFETKCRASNPVESGCRGIDSKHWNSYCTTTHTFVKALTTDEKQAAWRFIRIDTACVCVLSRKATRRG
modifications: 15N or 15N-13C isotope labeled
notes: Nerve Growth Factor (beta-NGF), mouse, mature form cut from the precursor proNGF; 118 amino acids per protomer (S1 to residue 118), non-covalent homodimer of 26 kDa; numbers count on: the mature protein; Expression host and the details of the construct are in the Supplementary Information and in Paoletti et al., 2011; also called mouse NGF
B1 was tested, and the “stoichiometry N” value was 2.

From paper PMC5183593, “Conformational Rigidity within Plasticity Promotes Differential Target Recognition of Nerve Growth Factor” (Frontiers in Molecular Biosciences, 2016)
